According to patent publication US20220177587A1, “METHODS AND USES OF VARIANT CD80 FUSION PROTEINS AND RELATED CONSTRUCTS” (Alpine Immune Sciences, Inc., priority 2018, published 2022):

What was measured:
CD28 [1] = target: T1, CD28 (Homo sapiens, UniProt P10747); assay: Flow binding to Jurkat/IL2 reporter cells (CD28); design: host or cells: Jurkat cells expressing an IL-2-luciferase reporter; conditions: for CD28 MFI at 33.3 nM: Jurkats (CD28)
Outline: (§1)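 Binding EC50 and PE mean fluorescence intensity derived by flow cytometry using PE-labelled anti-human Fc secondary. Target cells were CTLA4- or PD-L1-transfected CHO lines and CD28-expressing Jurkat/IL2 reporter cells, stained with fusion proteins on ice for 45 min following BSA blocking.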

CD28 [2] = target: T1, CD28; assay: Jurkat/IL2 + CHO/OKT3 +/- PD-L1 reporter assay: PD-L1-dependent CD28 costimulation; type: cell-based; design: host or cells: Jurkat cells expressing an IL-2-luciferase reporter; conditions: Jurkat/IL2 + CHO/OKT3/PD-L1; for Fold Increase over WT CD80-IgV-Fe / Relative Luciferase Units (RLU), CD80 Cone 5.0 nM: 5.0 nM
Outline: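 Readout is relative luminescence from lysed cocultures: test protein given 15 min at room temperature to Jurkat cells before adding CHO artificial APCs displaying OKT3 alone or OKT3 plus PD-L1, then 5 h at 37 °C, 5% CO2.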

huCTLA4 = huCTLA4 (Homo sapiens, UniProt P16410); assay: Flow binding to CHO cells stably expressing CTLA4; design: huCTLA4 and huPD-L1, full-length mammalian surface expression constructs were generated; expressed in transfected cells; host or cells: CHO cells, lentiviral transduction, sorted to >98% purity; conditions: for CTLA4 MFI at 33.3 nM: CHO cells stably expressing CTLA4
Sequence of huCTLA4 (P16410 36-223): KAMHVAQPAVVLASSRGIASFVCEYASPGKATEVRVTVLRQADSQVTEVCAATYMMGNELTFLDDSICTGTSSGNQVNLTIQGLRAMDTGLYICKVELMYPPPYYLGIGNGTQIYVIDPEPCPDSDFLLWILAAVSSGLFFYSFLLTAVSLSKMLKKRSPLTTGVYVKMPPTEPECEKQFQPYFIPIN
Outline: as §1

huPD-L1 = huPD-L1 (Homo sapiens, UniProt Q9NZQ7); assay: Flow binding to CHO cells stably expressing PD-L1; design: huCTLA4 and huPD-L1, full-length mammalian surface expression constructs were generated; expressed in transfected cells; host or cells: CHO cells, lentiviral transduction, sorted to >98% purity; conditions: for PD-L1 MFI at 33.3 nM: CHO cells stably expressing PD-L1
Sequence of huPD-L1 (Q9NZQ7 19-290): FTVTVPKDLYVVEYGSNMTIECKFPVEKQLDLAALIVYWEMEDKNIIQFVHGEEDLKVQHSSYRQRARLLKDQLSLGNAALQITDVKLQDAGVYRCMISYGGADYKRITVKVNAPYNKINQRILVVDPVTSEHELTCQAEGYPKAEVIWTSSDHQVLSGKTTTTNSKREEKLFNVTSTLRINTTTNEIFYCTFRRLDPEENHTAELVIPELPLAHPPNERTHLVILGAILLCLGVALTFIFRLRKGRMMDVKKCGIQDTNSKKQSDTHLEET
Outline: as §1

[3] = Table E10, 33.3 nM, relative to CD80 WT IgV-Fc
[4] = Table E10, binding to PD-L1 compared to binding to CD28
[5] = Table E19, MFI at 33.3 nM relative to WT CD80 ECD-Fc (Abcam)

Molecule | CD28 MFI at 33.3 nM (CD28 [1]; Table E10, 33.3 nM) | CD28 Fold change to WT CD80 (CD28 [1]; [3]) | Fold Increase over WT CD80-IgV-Fe (CD28 [2]; Table E12) | Relative Luciferase Units (RLU), CD80 Cone 5.0 nM (CD28 [2]; Table E12) | CTLA4 MFI at 33.3 nM (huCTLA4; Table E10, 33.3 nM) | CTLA4 Fold change to WT CD80 (huCTLA4; [3]) | PD-L1 MFI at 33.3 nM (huPD-L1; Table E10, 33.3 nM) | PD-L1 Fold change to WT CD80 (huPD-L1; [3]) | Ratio of PDL1:CD28 (huPD-L1; [4]) | CD28 MFI at 33.3 nM (CD28 [1]; Table E19, 33.3 nM) | CD28 Fold change to WT CD80 (CD28 [1]; [5]) | Fold Increase over WT CD80-IgV-Fe (CD28 [2]; Table E21) | Relative Luciferase Units (RLU), CD80 Conc 5.0 nM (CD28 [2]; Table E21, CD80 Conc 5.0 nM) | CTLA4 MFI at 33.3 nM (huCTLA4; Table E19, 33.3 nM) | CTLA4 Fold change to WT CD80 (huCTLA4; [5]) | PD-L1 MFI at 33.3 nM (huPD-L1; Table E19, 33.3 nM) | PD-L1 Fold change to WT CD80 (huPD-L1; [5]) | Ratio of PDL1:CD28 (huPD-L1; Table E19, ratio of MFI at 33.3 nM)
E35D/D46E/A91G (protein) VIHVTKEVKEVATLSCGHNVSVEELAQTRIYWQKDKKMVLTMMSGEMNIWPEYKNRTIFDITNNLSIVILALRPSDEGTYECVVLKYEKDGFKREHLAEVTLSVKAD | 3450 | 52.3 | 1.0 | 395 RLU | 32189 | 16.8 | 2818 | 40.1 | 1 | – | – | – | – | – | – | – | – | –
H18Y/E35D/M47L/A71G/A91S (protein) VIHVTKEVKEVATLSCGYNVSVEELAQTRIYWQKDKKMVLTMMSGDLNIWPEYKNRTIFDITNNLSIVILGLRPSDEGTYECVVLKYEKDSFKREHLAEVTLSVKAD | 528 | 8.0 | 4.7 | 1898 RLU | 24218 | 12.6 | 7582 | 107.9 | 14 | – | – | – | – | – | – | – | – | –
E35D/M47I/N48K/I61F (protein) VIHVTKEVKEVATLSCGHNVSVEELAQTRIYWQKDKKMVLTMMSGDIKIWPEYKNRTIFDFTNNLSIVILALRPSDEGTYECVVLKYEKDAFKREHLAEVTLSVKAD | 816 | 12.4 | 5.2 | 2078 RLU | 25859 | 13.5 | 5627 | 80.0 | 7 | – | – | – | – | – | – | – | – | –
Q27H/E35D/M47I (protein) VIHVTKEVKEVATLSCGHNVSVEELAHTRIYWQKDKKMVLTMMSGDINIWPEYKNRTIFDITNNLSIVILALRPSDEGTYECVVLKYEKDAFKREHLAEVTLSVKAD | 756 | 11.5 | 4.6 | 1829 RLU | 27530 | 14.4 | 3424 | 48.7 | 5 | – | – | – | – | – | – | – | – | –
E35D/D46E/M47I (protein) VIHVTKEVKEVATLSCGHNVSVEELAQTRIYWQKDKKMVLTMMSGEINIWPEYKNRTIFDITNNLSIVILALRPSDEGTYECVVLKYEKDAFKREHLAEVTLSVKAD | 1001 | 15.2 | 4.8 | 1915 RLU | 21394 | 11.2 | 3789 | 53.9 | 4 | – | – | – | – | – | – | – | – | –
E35D/D46E (protein) VIHVTKEVKEVATLSCGHNVSVEELAQTRIYWQKDKKMVLTMMSGEMNIWPEYKNRTIFDITNNLSIVILALRPSDEGTYECVVLKYEKDAFKREHLAEVTLSVKAD | 779 | 11.8 | 4.9 | 1961 RLU | 27921 | 14.6 | 3757 | 53.4 | 5 | – | – | – | – | – | – | – | – | –
E35D/M47L/A71G/L85M (protein) VIHVTKEVKEVATLSCGHNVSVEELAQTRIYWQKDKKMVLTMMSGDLNIWPEYKNRTIFDITNNLSIVILGLRPSDEGTYECVVMKYEKDAFKREHLAEVTLSVKAD | 199 | 3.0 | 3.8 | 1513 RLU | 16609 | 8.7 | 8312 | 118.2 | 42 | – | – | – | – | – | – | – | – | –

The remaining lines, values ahead:

CD28 MFI at 33.3 nM (CD28 [1]; Table E10, 33.3 nM) | CD28 Fold change to WT CD80 (CD28 [1]; [3]) | Fold Increase over WT CD80-IgV-Fe (CD28 [2]; Table E12) | Relative Luciferase Units (RLU), CD80 Cone 5.0 nM (CD28 [2]; Table E12) | CTLA4 MFI at 33.3 nM (huCTLA4; Table E10, 33.3 nM) | CTLA4 Fold change to WT CD80 (huCTLA4; [3]) | PD-L1 MFI at 33.3 nM (huPD-L1; Table E10, 33.3 nM) | PD-L1 Fold change to WT CD80 (huPD-L1; [3]) | Ratio of PDL1:CD28 (huPD-L1; [4]) | CD28 MFI at 33.3 nM (CD28 [1]; Table E19, 33.3 nM) | CD28 Fold change to WT CD80 (CD28 [1]; [5]) | Fold Increase over WT CD80-IgV-Fe (CD28 [2]; Table E21) | Relative Luciferase Units (RLU), CD80 Conc 5.0 nM (CD28 [2]; Table E21, CD80 Conc 5.0 nM) | CTLA4 MFI at 33.3 nM (huCTLA4; Table E19, 33.3 nM) | CTLA4 Fold change to WT CD80 (huCTLA4; [5]) | PD-L1 MFI at 33.3 nM (huPD-L1; Table E19, 33.3 nM) | PD-L1 Fold change to WT CD80 (huPD-L1; [5]) | Ratio of PDL1:CD28 (huPD-L1; Table E19, ratio of MFI at 33.3 nM) | Molecule
200 | 3.0 | 3.7 | 1475 RLU | 26878 | 14.0 | 7138 | 101.5 | 36 | – | – | – | – | – | – | – | – | – | E35D/M43I/D46E/A71G/L85M (protein) VIHVTKEVKEVATLSCGHNVSVEELAQTRIYWQKDKKMVLTMISGEMNIWPEYKNRTIFDITNNLSIVILGLRPSDEGTYECVVMKYEKDAFKREHLAEVTLSVKAD
990 | 15.0 | 6.5 | 2583 RLU | 21855 | 11.4 | 8168 | 116.2 | 8 | – | – | – | – | – | – | – | – | – | V22A/E35D/M47L/A71G (protein) VIHVTKEVKEVATLSCGHNVSAEELAQTRIYWQKDKKMVLTMMSGDLNIWPEYKNRTIFDITNNLSIVILGLRPSDEGTYECVVLKYEKDAFKREHLAEVTLSVKAD
479 | 7.3 | 5.0 | 1990 RLU | 26258 | 13.7 | 3526 | 50.2 | 7 | – | – | – | – | – | – | – | – | – | H18Y/E35D (protein) VIHVTKEVKEVATLSCGYNVSVEELAQTRIYWQKDKKMVLTMMSGDMNIWPEYKNRTIFDITNNLSIVILALRPSDEGTYECVVLKYEKDAFKREHLAEVTLSVKAD
164 | 2.5 | 3.5 | 1413 RLU | 30289 | 15.8 | 2880 | 41.0 | 18 | – | – | – | – | – | – | – | – | – | E35D/D46E/L85M (protein) VIHVTKEVKEVATLSCGHNVSVEELAQTRIYWQKDKKMVLTMMSGEMNIWPEYKNRTIFDITNNLSIVILALRPSDEGTYECVVMKYEKDAFKREHLAEVTLSVKAD
1000 | 15.2 | 4.1 | 1641 RLU | 23292 | 12.2 | 7763 | 110.4 | 8 | – | – | – | – | – | – | – | – | – | M43I/M47L/A71G (protein) VIHVTKEVKEVATLSCGHNVSVEELAQTRIYWQKEKKMVLTMISGDLNIWPEYKNRTIFDITNNLSIVILGLRPSDEGTYECVVLKYEKDAFKREHLAEVTLSVKAD
461 | 7.0 | 3.4 | 1353 RLU | 20893 | 10.9 | 2935 | 41.7 | 6 | 501 | 0.7 fold | 4.7 fold | 543 RLU | 44569 | 1.1 fold | 6796 | 53.1 fold | 13.6 | E35D/M47V (protein) VIHVTKEVKEVATLSCGHNVSVEELAQTRIYWQKDKKMVLTMMSGDVNIWPEYKNRTIFDITNNLSIVILALRPSDEGTYECVVLKYEKDAFKREHLAEVTLSVKAD
